Test [1] concerns the target T1, rat C7 protein (rat).
T1 chain: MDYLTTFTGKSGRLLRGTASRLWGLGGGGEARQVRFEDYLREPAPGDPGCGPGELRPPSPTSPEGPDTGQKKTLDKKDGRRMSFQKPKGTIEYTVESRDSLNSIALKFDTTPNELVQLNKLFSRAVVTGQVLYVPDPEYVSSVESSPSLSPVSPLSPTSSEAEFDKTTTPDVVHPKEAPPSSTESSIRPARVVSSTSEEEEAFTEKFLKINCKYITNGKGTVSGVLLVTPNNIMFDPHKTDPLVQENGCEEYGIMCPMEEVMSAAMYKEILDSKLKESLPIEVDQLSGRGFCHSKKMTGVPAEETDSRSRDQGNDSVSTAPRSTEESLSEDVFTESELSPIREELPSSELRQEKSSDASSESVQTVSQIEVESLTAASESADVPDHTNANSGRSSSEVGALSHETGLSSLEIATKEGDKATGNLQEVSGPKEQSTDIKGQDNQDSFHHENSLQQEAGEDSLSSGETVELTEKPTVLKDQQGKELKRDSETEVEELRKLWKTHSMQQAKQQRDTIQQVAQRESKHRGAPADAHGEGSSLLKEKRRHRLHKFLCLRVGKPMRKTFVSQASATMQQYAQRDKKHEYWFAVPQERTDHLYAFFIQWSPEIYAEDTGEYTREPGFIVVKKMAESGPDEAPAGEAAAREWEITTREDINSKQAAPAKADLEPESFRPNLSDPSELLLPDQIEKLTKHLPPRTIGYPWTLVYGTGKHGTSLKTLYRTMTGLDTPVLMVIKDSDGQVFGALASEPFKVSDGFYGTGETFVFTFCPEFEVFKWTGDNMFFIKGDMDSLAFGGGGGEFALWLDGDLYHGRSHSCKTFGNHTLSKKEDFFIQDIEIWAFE
The test can be described thus: cell-based or functional assay.

For test [2], the target named is T2, human complement protein C7 (human, UniProt P10643 23-843). The test can be described thus: cell-based or functional assay.
Another test addresses mouse C7 protein (mouse, UniProt D3YXF5 23-845). As to the kind of experiment: cell-based or functional assay.
The target of test [3] is T1, rat C7 protein. The test can be described thus: SPR (Biacore); antibody captured on mouse IgG capture kit (CM5 chip), C7 flowed over. The protocol:
(§1) Dissociation was then measured for a further 600 seconds. The surface was regenerated between each cycle.
Background: In SPR one partner is held on a chip, and binding of the other changes the refractive index at the surface.

The target of test [4] is T2, human complement protein C7. The description is as above. The procedure: as §1
Test [5] deals with T1, rat C7 protein. As to the kind of experiment: direct ELISA, rat C7 on the well, antibody titrated. (In general: An ELISA detects its analyte on a solid surface through an enzyme-linked reagent.)
For test [6], the target named is T2, human complement protein C7. As to the kind of experiment: sandwich ELISA, 2H2 coated as capture, human C7 titrated, goat anti-C7 as detection.
Test [7] has the same target. The test can be described thus: sandwich ELISA, 2H2 coated as capture, human C7 titrated, polyclonal anti-C7 as detection.
The target is the same in test [8]. As to the kind of experiment: direct ELISA, C7 immobilised on the well, antibody titrated. The protocol:
Wells were blocked with bovine serum albumin (BSA), washed, then incubated (1 hour at 37° C.) with test samples containing mAb (supernatants from hybridoma clones for example). Wells were washed then incubated as above with peroxidase-labelled anti-mouse immunoglobulin (Jackson Labs). Wells were washed and signals were developed with OPD (o-phenylenediamine dihydrochloride; Sigma). Colour development was stopped by adding 10% H₂SO₄ to all wells, usually within 5 minutes. The absorbance of each well was measured at 492 nm.

The values that follow come from patent publication US20220380444A1 (UNIVERSITY COLLEGE CARDIFF CONSULTANTS, published 2022).

Sequence of mouse C7 protein (D3YXF5 23-845 limits assumed): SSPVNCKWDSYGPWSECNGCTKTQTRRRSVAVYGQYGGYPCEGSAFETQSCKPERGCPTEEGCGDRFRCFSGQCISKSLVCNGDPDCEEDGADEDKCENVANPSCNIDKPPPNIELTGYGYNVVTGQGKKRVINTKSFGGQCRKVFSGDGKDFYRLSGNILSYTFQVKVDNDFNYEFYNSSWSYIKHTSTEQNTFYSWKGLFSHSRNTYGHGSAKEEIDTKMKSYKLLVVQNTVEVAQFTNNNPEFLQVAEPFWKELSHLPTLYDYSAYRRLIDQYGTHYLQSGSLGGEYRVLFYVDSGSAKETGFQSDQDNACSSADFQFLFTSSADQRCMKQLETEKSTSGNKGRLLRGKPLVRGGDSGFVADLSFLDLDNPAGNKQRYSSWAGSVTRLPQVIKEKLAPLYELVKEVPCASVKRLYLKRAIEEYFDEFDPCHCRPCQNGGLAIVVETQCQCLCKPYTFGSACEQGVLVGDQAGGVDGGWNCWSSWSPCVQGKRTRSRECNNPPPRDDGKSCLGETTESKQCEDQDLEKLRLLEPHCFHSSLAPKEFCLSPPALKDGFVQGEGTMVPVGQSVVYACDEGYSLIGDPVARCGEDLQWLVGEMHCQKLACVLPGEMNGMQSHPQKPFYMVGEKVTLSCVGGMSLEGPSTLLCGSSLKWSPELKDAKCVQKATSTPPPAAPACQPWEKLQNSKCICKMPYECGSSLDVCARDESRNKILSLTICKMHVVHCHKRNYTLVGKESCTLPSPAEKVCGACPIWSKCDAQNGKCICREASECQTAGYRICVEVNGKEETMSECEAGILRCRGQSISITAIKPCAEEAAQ
T2 sequence (P10643 other isoform, or with tags, fused parts or gaps limits assumed): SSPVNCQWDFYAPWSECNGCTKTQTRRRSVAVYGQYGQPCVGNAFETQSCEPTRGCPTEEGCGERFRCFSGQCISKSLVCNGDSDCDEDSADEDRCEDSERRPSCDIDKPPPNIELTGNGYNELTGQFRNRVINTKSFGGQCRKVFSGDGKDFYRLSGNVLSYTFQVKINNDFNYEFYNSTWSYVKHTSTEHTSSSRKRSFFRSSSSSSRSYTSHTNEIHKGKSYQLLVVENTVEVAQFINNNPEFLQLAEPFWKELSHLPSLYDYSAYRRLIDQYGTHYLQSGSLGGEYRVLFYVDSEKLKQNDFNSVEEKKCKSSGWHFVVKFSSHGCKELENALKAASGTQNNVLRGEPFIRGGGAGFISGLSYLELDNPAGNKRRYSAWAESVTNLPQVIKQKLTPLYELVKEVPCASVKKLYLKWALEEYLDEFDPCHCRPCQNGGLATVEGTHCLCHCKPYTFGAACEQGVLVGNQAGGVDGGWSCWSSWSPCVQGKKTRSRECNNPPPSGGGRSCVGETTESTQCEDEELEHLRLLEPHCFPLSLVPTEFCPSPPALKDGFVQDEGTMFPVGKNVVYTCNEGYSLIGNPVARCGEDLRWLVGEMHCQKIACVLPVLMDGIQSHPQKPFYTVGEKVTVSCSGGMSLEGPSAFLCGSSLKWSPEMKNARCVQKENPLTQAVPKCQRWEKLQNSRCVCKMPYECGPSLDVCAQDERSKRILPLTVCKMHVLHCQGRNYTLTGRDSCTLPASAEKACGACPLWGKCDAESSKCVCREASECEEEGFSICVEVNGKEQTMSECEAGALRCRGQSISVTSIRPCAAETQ

B1: monoclonal anti-C7 antibody 73D1 (antibody, IgG2a, V domains shown)
VH: EVQLQQSGPELVKPGASVKMSCKASGYTFTDYNMHWVKQSHGKSLEWIGYINPNNGGPSYNQNFKGKATLTVNKSSSTAYMELRSLTSEDSAVYYCACGNYPDYWGQGTTLTVSS
VL: DIQMTQSPASLSASVGETVTITCRASGNIHNYLAWYQQKQGKSPQLLVYNAKTLADGVPSRFSGSGSGTQYSLKINSLQPEDFGSYYCQHFWSTPLTFGAGTKLELK
notes: also called mAb 73D1; antibody from hybridoma ECACC 19080601
The Kd is a measure of binding affinity in units of concentration. Low values mean a tighter complex, high ones a looser complex. The term koff denotes the first-order rate constant of dissociation. What is called kon is a measure of how fast the partners come together. With B1, the “50% Inhibitory Dose, classical pathway haemolysis assay” value (“50% Inhibitory Dose” below) with rat C7 protein [1] worked out at 506 ng/mL; in test [2] it was 582 ng/mL; with mouse C7 protein, 720 ng/mL. Further, the “Haemolytic Units (HU), classical pathway haemolysis assay” value (shortened to “Haemolytic Units (HU)”) was determined as 19.8 HU in the test with rat C7 protein [1], 17.2 HU in test [2] and 13.9 HU with mouse C7 protein. The Kd with rat C7 protein [3] came to 81.7 nM; in test [4] it was 55.5 nM. The koff with rat C7 protein [3] was determined as 0.00057 s⁻¹; in test [4] it was 0.0015 s⁻¹. Besides, the kon in the test with rat C7 protein [3] stood at 6980 M⁻¹ s⁻¹; in test [4] it was 26300 M⁻¹ s⁻¹.

B2: monoclonal anti-C7 antibody 2H2 (antibody, IgG2b, V domains shown)
VH: QVQLQQPGAELMKPGASVKLSCKASGYIFTSYWMHWVKQRPGRGLEWIGRIDPNSGGTNYNEKFKSKATLTVDKPSSTVYMKISSLTSEDSAVYYCAREHDYDYAMDYWGQGTSVTVSS
VL: DIVMTQAAPSVPVTPGESVSISCRSSKSLLHSNGNTYLYWFLQRPGQSPQLLIYRMSNLASGVPDRFSGSGSGTAFTLRISRVEAEDVGVYYCMQHLEYPFTFGSGTKLEIK
notes: Biotinylated in the pull-down assays; also called mAb 2H2; clone 2H2
A word on the EC50 (read off the curve): it is the concentration giving half of the maximal effect. Consider B2, for which the “50% Inhibitory Dose” value with rat C7 protein [1] came to 33.9 ng/mL; in test [2] it was 9980 ng/mL; with mouse C7 protein, 3720 ng/mL. The “Haemolytic Units (HU)” value with rat C7 protein [1] turned out to be 265 HU; in [2], 1 HU; with mouse C7 protein, 2.7 HU. In addition, the 50% effective concentration (EC50 (read off the curve)) is about 3 µg/mL with rat C7 protein [5], about 0.6 µg/mL in test [6] and about 0.6 µg/mL in [7].

B3: monoclonal anti-C7 antibody 17E7 (antibody, IgG2a, V domains shown)
VH: EVQLQQSGTVLARPGASVKMSCKTSGYSFTTYWMHWVKQRPGQGLEWIGAIYPGNSDTYYSQKFKDKAKLTAVTSASTAYMELSSLTNEDSAVYYCTRSGGYDVGGLDYWGQGTTLTVSS
VL: DIVMTQSPATLSVTPGDGVSLSCRASQSISDYLHWYQQKSHESPRLLIKFASQSISGIPSRFSGSGSGSDFTLSINSVEPEDVGMYYCQNGHSFPFTFGSGTKLELK
notes: also called mAb 17E7; antibody from hybridoma ECACC 19041601
B3: in [2], the “50% Inhibitory Dose” value was found to be 182 ng/mL and the “Haemolytic Units (HU)” value worked out at 55.1 HU. In [8], the concentration giving a half-maximal response (EC50 (read off the curve)) is about 0.01 µg/mL. For the same molecule, in [4], binding was characterised by a dissociation constant (Kd) of 1.02 nM, the koff was found to be 6.94e-05 s⁻¹ and the kon stood at 68300 M⁻¹ s⁻¹.
